From article PMC5686127, “Accessibility of the histone H3 tail in the nucleosome for binding of paired readers” (Nature Communications, 2017)

Columns and labels:
CHD4 PHD2 (443–498) = target: T1, CHD4 PHD2 (443–498) (human, UniProt Q14839 443-498); assay: other fluorescence titration; intrinsic tryptophan fluorescence; H3 (1-12) peptide added to 0.5-1 uM CHD4 PHD construct; 25 °C, pH 7.5, 75 mM NaCl, 3 mM DTT; apparent; conditions: both partners purified
T1 construct: CHD4, human, second PHD finger, aa 443-498; Cloned into pGex6p1; also called second PHD finger of CHD4; source: E. coli BL21 DE3 pLysS, purified (glutathione Sepharose 4B, GST cleaved with Prescission protease)

CHD4 PHD1 (aa 362–417) = target: T2, CHD4 PHD1 (aa 362–417) (human, UniProt Q14839 362-417); assay: as above; conditions: both partners purified
T2 construct: CHD4, human, first PHD finger, aa 362-417; Cloned into pGex6p1; also called first PHD finger of CHD4; source: E. coli BL21 DE3 pLysS, purified (glutathione Sepharose 4B, GST cleaved with Prescission protease)
T2 sequence (Q14839 362-417): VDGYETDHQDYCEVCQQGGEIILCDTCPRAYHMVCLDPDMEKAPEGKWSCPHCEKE

T1 sequence (Q14839 443-498): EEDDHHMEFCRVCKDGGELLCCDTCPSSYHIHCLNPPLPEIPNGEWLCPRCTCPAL

Kd (CHD4 PHD2 (443–498)): 430 nM
Kd (CHD4 PHD1 (aa 362–417)): 4000 nM
B1: histone H3 peptide (aa 1–12) (peptide, UniProt P68431 2-13, looked up)
peptide: ARTKQTARKSTG
notes: histone H3, aa 1-12, unmodified; also called H3 (1–12) peptide; histone peptide; source: synthetic peptide (University of Colorado Denver Peptide Core Facility)
